What was measured:
Assay in all cases: ELISA: 1 µg peptide coated per well, 29E4 at 20 ng/mL, HRP goat anti-rabbit Ig 1:16,000, ABS 450 nm, duplicates [CONT. 1]
P49 = target: T1, P49
T1 construct: C-terminal truncation of P1
T1 peptide: QRQMSEPNIPFPPQ

[1] = target: T2, peptide P38 (QRQMSEPNIPFPPQGFK) (human)
T2 construct: C-terminal truncation of the immunogenic peptide P1
T2 peptide: QRQMSEPNIPFPPQGFK

P30 = target: T3, P30
T3 construct: C-terminal truncation of P1

P50 = target: T4, P50
T4 construct: C-terminal truncation of P1
T4 peptide: QRQMSEPNIPFPP

P29 = target: T5, P29
T5 construct: C-terminal truncation of P1

P37 = target: T6, P37
T6 construct: C-terminal truncation of P1
T6 peptide: QRQMSEPNIPFPPQGFKQ

P34 = target: T7, P34
T7 construct: C-terminal truncation of P1
T7 peptide: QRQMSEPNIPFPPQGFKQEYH

P35 = target: T8, P35
T8 construct: C-terminal truncation of P1
T8 peptide: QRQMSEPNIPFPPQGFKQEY

peptide P40 (…) = target: T9, peptide P40 (…) (human)
T9 construct: N-terminal truncation of the immunogenic peptide P1

P36 = target: T10, P36
T10 construct: C-terminal truncation of P1
T10 peptide: QRQMSEPNIPFPPQGFKQE

P32 = target: T11, P32
T11 construct: C-terminal truncation of P1
T11 peptide: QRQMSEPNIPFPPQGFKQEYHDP

P33 = target: T12, P33
T12 construct: C-terminal truncation of P1
T12 peptide: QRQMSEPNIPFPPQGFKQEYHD

P48 = target: T13, P48
T13 construct: C-terminal truncation of P1
T13 peptide: QRQMSEPNIPFPPQG

P42 = target: T14, P42
T14 construct: N-terminal truncation of P1
T14 peptide: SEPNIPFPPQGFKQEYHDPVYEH

P41 = target: T15, P41
T15 construct: N-terminal truncation of P1
T15 peptide: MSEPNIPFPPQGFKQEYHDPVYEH

P31 = target: T16, P31
T16 construct: C-terminal truncation of P1
T16 peptide: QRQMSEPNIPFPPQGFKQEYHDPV

P39 = target: T17, P39
T17 construct: N-terminal truncation of P1

Measured: binding result

B1: ETV1 rabbit monoclonal antibody (29E4) (antibody, V domains shown)
VH: QELEESGGDLVKPGASLTLTCTASGFFFSAENHICWVRQAPGKGLEWIGCVYIGSYVGGSGDPYYASWAKGRFTISKTSSTTVTLQMSSLTAADTATYFCARDLGSLWGPGTLVTVSS
VL: DVVMTQTASSVSAAVGGTVTIACQSSQSVYDNNNLAWFQQKPGQPPKRLIYSASTLASGVSSRFKGSGYGTQFTLTISDVQCDDAATYYCVGAFSGYIFVFGGGTEVVVK
notes: constant regions are not; also called 29E4 mAb; ETV1 29E4 mAb
binds: P49 | [1] | P30 | P50 | P29 | P37 | P34 | P35 | peptide P40 (…) | P36 | P32 | P33 | P48 | P42 | P41 | P31 | P39

— patent US20260227403A1 (HENRY M JACKSON FOUNDATION FOR THE ADVANCEMENT OF MILITARY …, published 2026)
